Legend:
[1] = biological target: anti-VEGF/ANG2 antibody (IgG1 subclass with mutations P329G/L234A/L235A) [IgG part: P01857]; assay: sandwich ELISA assay E; tracer M1.7.10-Dig; analyte 2) at 25 ng/mL
[2] = biological target: anti-VEGF/ANG2 antibody (IgG1 subclass with mutations P329G/L234A/L235A) [IgG part: P01857]; assay: sandwich ELISA assay E; tracer M1.7.10-Dig; analyte 2) at 3.124 ng/mL
[3] = biological target: anti-Dig antibody (IgG1 subclass with mutations P329G/L234A/L235A) [IgG part: P01857]; assay: sandwich ELISA assay D; tracer M1.19.31-Dig; analyte conc. not printed (row 6 of 8)
[4] = biological target: anti-Dig antibody (IgG1 subclass with mutations P329G/L234A/L235A) [IgG part: P01857]; assay: sandwich ELISA assay D; tracer M1.19.31-Dig; analyte conc. not printed (row 2 of 8)
[5] = biological target: anti-Dig antibody (IgG1 subclass with mutations P329G/L234A/L235A) [IgG part: P01857]; assay: sandwich ELISA assay D; tracer M1.19.31-Dig; analyte conc. not printed (row 3 of 8)
[6] = biological target: anti-Dig antibody (IgG1 subclass with mutations P329G/L234A/L235A) [IgG part: P01857]; assay: sandwich ELISA assay D; tracer M1.7.10-Dig; analyte conc. not printed (row 1 of 8)
[7] = biological target: anti-VEGF/ANG2 antibody (IgG1 subclass with mutations P329G/L234A/L235A) [IgG part: P01857]; assay: sandwich ELISA assay E; tracer M1.7.10-Dig; analyte 2) at 50 ng/mL
[8] = biological target: anti-VEGF/ANG2 antibody (IgG1 subclass with mutations P329G/L234A/L235A/I253A/H310A/H435A) [IgG part: P01857]; assay: sandwich ELISA assay A; capture M1.7.10-Bi; antibody 1 at 3 ng/mL
[9] = biological target: anti-VEGF/ANG2 antibody (IgG1 subclass with mutations P329G/L234A/L235A/I253A/H310A/H435A) [IgG part: P01857]; assay: sandwich ELISA assay A; capture M1.7.10-Bi; antibody 1 at 2 ng/mL
[10] = biological target: anti-VEGF/ANG2 antibody (IgG1 subclass with mutations P329G/L234A/L235A/I253A/H310A/H435A) [IgG part: P01857]; assay: sandwich ELISA assay E; tracer M1.7.10-Dig; analyte 1) at 0 ng/mL (blank)
[11] = biological target: anti-Dig antibody (IgG1 subclass with mutations P329G/L234A/L235A) [IgG part: P01857]; assay: sandwich ELISA assay D; tracer M1.7.10-Dig; analyte conc. not printed (row 2 of 8)
target antibodies [12] = assay: depletion of target antibody from sample; concentration before depletion 1000.00 µg/mL
target antibodies [13] = assay: depletion of target antibody from sample; concentration before depletion 30.00 µg/mL
[14] = biological target: anti-VEGF/ANG2 antibody (IgG1 subclass with mutations P329G/L234A/L235A/I253A/H310A/H435A) [IgG part: P01857]; assay: sandwich ELISA assay E; tracer M1.7.10-Dig; analyte 1) at 100 ng/mL
[15] = biological target: anti-VEGF/ANG2 antibody (IgG1 subclass with mutations P329G/L234A/L235A/I253A/H310A/H435A) [IgG part: P01857]; assay: sandwich ELISA assay E; tracer M1.7.10-Dig; analyte 1) at 3.124 ng/mL
[16] = biological target: anti-P-Selectin antibody (IgG4 subclass with mutations S228P/L235E) [IgG part: P01861]; assay: sandwich ELISA assay A; capture M1.7.10-Bi; antibody 4 at 2 ng/mL
[17] = biological target: anti-P-Selectin antibody (IgG4 subclass with mutations S228P/L235E) [IgG part: P01861]; assay: sandwich ELISA assay A; capture M1.7.10-Bi; antibody 4 at 13 ng/mL
[18] = biological target: anti-VEGF/ANG2 antibody (IgG1 subclass with mutations P329G/L234A/L235A/I253A/H310A/H435A) [IgG part: P01857]; assay: sandwich ELISA assay E; tracer M1.7.10-Dig; analyte 1) at 25 ng/mL
[19] = biological target: anti-VEGF/ANG2 antibody (wild-type IgG1 subclass) (human) [IgG part: P01857]; assay: sandwich ELISA assay B; capture on SA plate; tracer M1.7.10-Dig; analyte 2 ng/mL
[20] = biological target: anti-VEGF/ANG2 antibody (wild-type IgG1 subclass) (human) [IgG part: P01857]; assay: sandwich ELISA assay B; capture on SA plate; tracer M1.7.10-Dig; analyte 6 ng/mL
[21] = biological target: anti-VEGF/ANG2 antibody (wild-type IgG1 subclass) (human) [IgG part: P01857]; assay: sandwich ELISA assay C; capture on SA plate; tracer FcγRI-Dig; analyte 25 ng/mL
[22] = biological target: anti-VEGF/ANG2 antibody (wild-type IgG1 subclass) (human) [IgG part: P01857]; assay: sandwich ELISA assay B; capture on SA plate; tracer M1.7.10-Dig; analyte 13 ng/mL
[23] = biological target: anti-VEGF/ANG2 antibody (wild-type IgG1 subclass) (human) [IgG part: P01857]; assay: sandwich ELISA assay C; capture on SA plate; tracer FcγRI-Dig; analyte 50 ng/mL
[24] = biological target: anti-VEGF/ANG2 antibody (wild-type IgG1 subclass) (human) [IgG part: P01857]; assay: sandwich ELISA assay C; capture on SA plate; tracer FcγRI-Dig; analyte 13 ng/mL
[25] = biological target: anti-VEGF/ANG2 antibody (wild-type IgG1 subclass) (human) [IgG part: P01857]; assay: sandwich ELISA assay C; capture on SA plate; tracer FcγRI-Dig; analyte 2 ng/mL

Binder	signal [OD405 nm] [1]	signal [OD405 nm] [2]	signal 10% cynomolgus serum [OD405 nm] [3]	signal 10% human serum [OD405 nm] [3]	signal buffer [OD405 nm] [3]	signal 10% cynomolgus serum [OD405 nm] [4]	signal 10% human serum [OD405 nm] [4]	signal buffer [OD405 nm] [4]	signal 10% cynomolgus serum [OD405 nm] [5]	signal 10% human serum [OD405 nm] [5]	signal buffer [OD405 nm] [5]	signal 10% cynomolgus serum [OD405 nm] [6]	signal 10% human serum [OD405 nm] [6]	signal buffer [OD405 nm] [6]	signal [OD405 nm] [7]	signal [OD405 nm] [8]	signal [OD405 nm] [9]	signal [OD405 nm] [10]	signal [OD405 nm] [16]	signal [OD405 nm] [17]	also measured
anti-variant (human) Fc-region antibody M1.3.17 (antibody, V domains shown) VH: EVKLLESGGGLVQPGGSLKLSCAASGIDFRRYWMNWVRQAPGKGLEWIGEIDPDSSTINYTPSLKDKFIISRDNAKNTMYLQMRKVRSEDTALYYCARPYDYGAWFAYWGQGTLVTVSA VL: QAVVTQESALTTSPGETVTLTCRSTTGAVTTSNYANWVQEKPDHLFTGLIGGTNKRAPGVPARFSGSLIGDKAALTITGAQTEDEAIYFCALWYSDHWVFGGGTKLTVL	1.48 OD405 nm	0.316 OD405 nm	0.082 OD405 nm	1.67 OD405 nm	0.033 OD405 nm	0.872 OD405 nm	2.14 OD405 nm	0.041 OD405 nm	0.357 OD405 nm	1.84 OD405 nm	0.04 OD405 nm	2.12 OD405 nm	2.66 OD405 nm	0.053 OD405 nm	1.89 OD405 nm	0.038 OD405 nm	0.043 OD405 nm	0.027 OD405 nm	0.034 OD405 nm	0.038 OD405 nm	signal 10% cynomolgus serum [OD405 nm] [11]: 1.18 OD405 nm; signal 10% human serum [OD405 nm] [11]: 2.55 OD405 nm; signal buffer [OD405 nm] [11]: 0.038 OD405 nm; concentration after depletion (target antibodies [12]): 0.0169 µg/mL; recovery [%] (target antibodies [12]): 0.002%; concentration after depletion (target antibodies [13]): 0.008 µg/mL; recovery [%] (target antibodies [13]): 0.027%; signal [OD405 nm] [14]: 2.29 OD405 nm; signal [OD405 nm] [15]: 0.383 OD405 nm; signal [OD405 nm] [18]: 1.6 OD405 nm
anti-variant (human) Fc-region antibody M1.7.24 (antibody, V domains shown) VH: EVKLLESGGGLVQPGGSLKLSCAASGFDFSRYWMNWVRQAPGKGLEWIGEITPDSSTINYTPSLKDKFIISRDNAKNTLYLQMIKVRSEDTALYYCVRPYDYGAWFASWGQGTLVTVSA VL: QAVVTQESALTTSPGETVTLTCRSSTGAVTTSNYANWVQEKPDHLFTGLIGGTNKRAPGVPARFSGSLIGDKAALTITGAQTEDEAIYFCALWYSNHWVFGGGTKLTVL	1.39 OD405 nm	0.298 OD405 nm	0.049 OD405 nm	1.36 OD405 nm	0.033 OD405 nm	1.17 OD405 nm	2.04 OD405 nm	0.051 OD405 nm	0.438 OD405 nm	1.6 OD405 nm	0.045 OD405 nm	2.37 OD405 nm	2.74 OD405 nm	0.062 OD405 nm	1.8 OD405 nm	0.046 OD405 nm	0.042 OD405 nm	0.025 OD405 nm	0.036 OD405 nm	0.046 OD405 nm	signal [OD405 nm] [19]: 0.034 OD405 nm; signal [OD405 nm] [20]: 0.038 OD405 nm; signal [OD405 nm] [21]: 0.063 OD405 nm; signal 10% cynomolgus serum [OD405 nm] [11]: 1.41 OD405 nm; signal 10% human serum [OD405 nm] [11]: 2.61 OD405 nm; signal buffer [OD405 nm] [11]: 0.046 OD405 nm; signal [OD405 nm] [22]: 0.04 OD405 nm; signal [OD405 nm] [14]: 2.31 OD405 nm; signal [OD405 nm] [23]: 0.066 OD405 nm; signal [OD405 nm] [24]: 0.057 OD405 nm; signal [OD405 nm] [15]: 0.363 OD405 nm; signal [OD405 nm] [25]: 0.058 OD405 nm; signal [OD405 nm] [18]: 1.55 OD405 nm
anti-AAA variant Fc-region antibody M1.6.22 (antibody, V domains shown) VH: EVQLVESGGDLVKPGGSLKLSCAASGFTFSSYGMSWVRQTPDKRLEWVATISSGGSYIYYPDSVKGRFTISRDNAKNTLYLQMSSLKSEDTAMYYCARLGMITTGYAMDYWGQGTSVTVSS VL: DVLMTQTPLSLPVSLGDQASISCRSSQTIVHSTGHTYLEWFLQKPGQSPKLLIYKVSNRFSGVPDRFSGSGSGTDFTLKISRVEAEDLGVYYCFQGSHVPYTFGGGTKLEIK	–	–	–	–	–	–	–	–	–	–	–	–	–	–	–	0.057 OD405 nm	0.055 OD405 nm	–	0.04 OD405 nm	0.05 OD405 nm	signal [OD405 nm] [19]: 0.036 OD405 nm; signal [OD405 nm] [20]: 0.039 OD405 nm; signal [OD405 nm] [21]: 0.066 OD405 nm; concentration after depletion (target antibodies [12]): 0.0163 µg/mL; recovery [%] (target antibodies [12]): 0.002%; concentration after depletion (target antibodies [13]): 0.0054 µg/mL; recovery [%] (target antibodies [13]): 0.018%; signal [OD405 nm] [22]: 0.046 OD405 nm; signal [OD405 nm] [23]: 0.067 OD405 nm; signal [OD405 nm] [24]: 0.07 OD405 nm; signal [OD405 nm] [25]: 0.077 OD405 nm

From US20180346602A1
